Measurements from patent US20100137420.

Tests used:
recombinant cystatin C = molecular target: T1, recombinant cystatin C
T1 chain: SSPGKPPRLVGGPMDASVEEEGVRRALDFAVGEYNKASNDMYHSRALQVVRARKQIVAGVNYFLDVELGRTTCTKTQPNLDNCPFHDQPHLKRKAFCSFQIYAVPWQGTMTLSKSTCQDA

[1] = molecular target: cathepsin B (from THP-1 cell lysates), P07858

B1: MMP-2 (protein)
chain: YNFFPRKPKWDKNQITYRIIGYTPDLDPETVDDAFARAFQVWSDVTPLRFSRIHDGEADIMINFGRWEHGDGYPFDGKDGLLAHAFAPGTGVGGDSHFDDDELWTLGEGQVVRVKYGNADGEYCKFPFLFNGKEYNSCTDTGRSDGFLWCSTTYNFEKDGKYGFCPHEALFTMGGNAEGQPCKFPFRFQGTSYDSCTTEGRTDGYRWCGTTEDYDRDKKYGFCPETAMSTVGGNSEGAPCVFPFTFLGNKYESCTSAGRSDGKMWCATTANYDDDRKWGFCPDQGYSLFLVAAHEFGHAMGLEHSQDPGALMAPIYTYTKNFRLSQDDIKGIQELYGASPDIDLGTGPTPTLGPVTPEICKQDIVFDGIAQIRGEIFFFKDRFIWRTVTPRDKPMGPLLVATFWPELPEKIDAVYEAPQEEKAVFFAGNEYWIYSASTLERGYPKPLTSLGLPPDVQRVDAAFNWSKNKKTYIFAGDKFWRYNEVKKKMDPGFPKLIADAWNAIPDNLDAVVDLQGGGHSYFFKGAYYLKLENQSLKSVKFGSIKSDWLGC
- cleavage of recombinant cystatin C (recombinant cystatin C): MMP-2 cleaved cystatin C at three unique sites
- cathepsin B activity (fluorogenic Ac-Arg-Arg-AFC assay) [1]: Cathepsin D and MMP-2 alone had no effect on cathepsin B activity
